This test addresses JEV strain SA14-14-2 envelope (E) protein on virions (Japanese encephalitis virus strain SA14-14-2), P0DOH7. In words: ELISA on JEV virions captured with HMAF, half-maximal binding, MAb. The following applies: remark: other sources report otherwise.

Broadly, the Kd is the free concentration of one partner at which half of the binding sites on the other are occupied at equilibrium, for simple one-to-one binding. A low value points to higher affinity.

B1: humanized MAb B2 (antibody)
VH: EVQLLEQSGSEVKKPGASVKVSCKASGYPFTDYAMSWVRQAPGQGLEYMGWIFTNSGNPTYAPGFAGRFVFSLDISVNTAYLHIDSLKPEDTAVYYCARGIVTPAASGDYFDSWGQGTLVTVSSASTKGPSVFPLAPSSKSTSGGTAALGCLVKDYFPEPVTVSWNSGALTSGVHTFPAVLQSSGLYSLSSVVTVPSSSLGTQTYICNVDHKPSNTKVDKKVEPKSCDKTHTCPPCPAPPVEGGPSVFLFPPKPKDTLMISRTPEVTCVVVDVSHEDPEVKFNWYVDGVEVHNAKTKPREEQYNSTYRVVSVLTVLHQDWLNGKEYKCKVSNKALPAPIEKTISKAKGQPREPQVYTLPPSRDELTKNQVSLTCLVKGFYPSDIAVEWESNGQPENNYKTTPPVLDSDGSFFLYSKLTVDKSRWQQGNVFSCSVMHEALHNHYTQKSLSLSPGK
VL: ELVLTQSPSSLSASIGDRVTITCRASQHISSWLAWYQQKPGKAPKPLIYAASSLKSGVPSRFSGSGSGTDFTLTISGLQPEDFATYYCQQYENSPVTFGGGTKVEIKRTVAAPSVFIFPPSDEQLKSGTASVVCLLNNFYPREAKVQWKVDNALQSGNSQESVTEQDSKDNTYSLSSTLTLSKADYEKHKVYACEVTHQGLSSPVTKSFN
B1 registered a Kd of 0.08 nM.

B2: humanized MAb A3 (antibody)
VH: EVQLLESGAEVKKPGSSVRISCKVSGTPYSSYVMNWVRQAPGQGLEWMGVFVPSLDRALYAQNFQGRLSITADTTTTYMELTSLKFEDTAVYYCATDFSVGWLRPLDRWGQGTLVTVSSASTKGPSVFPLAPSSKSTSGGTAALGCLVKDYFPEPVTVSWNSGALTSGVHTFPAVLQSSGLYSLSSVVTVPSSSLGTQTYICNVDHKPSNTKVDKKVEPKSCDKTHTCPPCPAPPVEGGPSVFLFPPKPKDTLMISRTPEVTCVVVDVSHEDPEVKFNWYVDGVEVHNAKTKPREEQYNSTYRVVSVLTVLHQDWLNGKEYKCKVSNKALPAPIEKTISKAKGQPREPQVYTLPPSRDELTKNQVSLTCLVKGFYPSDIAVEWESNGQPENNYKTTPPVLDSDGSFFLYSKLTVDKSRWQQGNVFSCSVMHEALHNHYTQKSLSLSPGK
VL: not shown
B2 registered a Kd of 0.15 nM. This Kd lies about 1.9-fold higher than the previous one.
